This passage reports Kd results from paper PMC6648896 (Nucleic Acids Research, 2019).

This experiment addresses E. coli RNAP core enzyme (E. coli, UniProt P0A7Z4;P0A8V2;P0A8T7;P0A800). Put plainly: fluorescence polarisation.

Sequence of E. coli RNAP core enzyme (P0A7Z4 whole entry, chain 1 of 4): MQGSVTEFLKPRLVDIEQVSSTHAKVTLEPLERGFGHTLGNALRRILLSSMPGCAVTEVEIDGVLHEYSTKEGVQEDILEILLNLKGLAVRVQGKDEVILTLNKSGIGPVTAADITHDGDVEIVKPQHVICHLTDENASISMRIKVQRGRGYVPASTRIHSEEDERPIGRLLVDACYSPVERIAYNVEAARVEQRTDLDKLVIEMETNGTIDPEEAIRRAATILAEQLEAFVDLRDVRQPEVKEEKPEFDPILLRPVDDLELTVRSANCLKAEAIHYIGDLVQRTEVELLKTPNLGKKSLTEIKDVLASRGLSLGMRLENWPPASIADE
Sequence of E. coli RNAP core enzyme (P0A8V2 whole entry, chain 2 of 4): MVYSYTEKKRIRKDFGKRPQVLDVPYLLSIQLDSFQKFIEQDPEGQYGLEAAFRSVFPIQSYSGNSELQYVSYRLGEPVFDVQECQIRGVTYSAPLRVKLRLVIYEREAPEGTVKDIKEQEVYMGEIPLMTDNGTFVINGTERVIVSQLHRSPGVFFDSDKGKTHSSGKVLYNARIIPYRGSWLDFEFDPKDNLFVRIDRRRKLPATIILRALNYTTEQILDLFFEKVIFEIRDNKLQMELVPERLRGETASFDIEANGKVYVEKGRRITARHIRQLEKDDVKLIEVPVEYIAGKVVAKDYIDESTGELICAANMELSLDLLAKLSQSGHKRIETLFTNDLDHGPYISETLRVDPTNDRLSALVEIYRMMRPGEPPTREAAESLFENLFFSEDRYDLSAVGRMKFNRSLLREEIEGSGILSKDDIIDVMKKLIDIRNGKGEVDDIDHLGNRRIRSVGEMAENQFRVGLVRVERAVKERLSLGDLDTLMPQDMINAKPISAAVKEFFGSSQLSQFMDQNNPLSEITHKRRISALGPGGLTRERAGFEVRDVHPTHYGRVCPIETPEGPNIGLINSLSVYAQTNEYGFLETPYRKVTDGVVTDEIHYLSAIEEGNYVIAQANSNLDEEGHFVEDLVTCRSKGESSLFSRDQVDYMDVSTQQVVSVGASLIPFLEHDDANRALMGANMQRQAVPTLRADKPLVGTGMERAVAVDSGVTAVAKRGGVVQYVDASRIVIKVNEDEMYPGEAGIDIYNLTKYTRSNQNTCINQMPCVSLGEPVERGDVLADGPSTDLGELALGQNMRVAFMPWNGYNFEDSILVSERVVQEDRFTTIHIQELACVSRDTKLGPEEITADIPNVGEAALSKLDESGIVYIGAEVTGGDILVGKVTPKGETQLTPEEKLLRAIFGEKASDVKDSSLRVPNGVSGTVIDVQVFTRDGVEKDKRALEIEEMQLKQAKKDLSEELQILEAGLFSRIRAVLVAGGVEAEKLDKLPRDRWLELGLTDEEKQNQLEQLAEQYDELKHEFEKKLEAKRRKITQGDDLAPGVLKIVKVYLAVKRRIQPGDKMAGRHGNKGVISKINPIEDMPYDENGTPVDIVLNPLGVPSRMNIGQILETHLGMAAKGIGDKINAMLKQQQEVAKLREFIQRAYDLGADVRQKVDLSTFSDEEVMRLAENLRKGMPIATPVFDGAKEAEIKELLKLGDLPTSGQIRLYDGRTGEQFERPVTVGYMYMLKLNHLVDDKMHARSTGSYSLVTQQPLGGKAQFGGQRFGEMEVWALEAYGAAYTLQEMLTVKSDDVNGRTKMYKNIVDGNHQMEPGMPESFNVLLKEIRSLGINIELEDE
Sequence of E. coli RNAP core enzyme (P0A8T7 whole entry, chain 3 of 4): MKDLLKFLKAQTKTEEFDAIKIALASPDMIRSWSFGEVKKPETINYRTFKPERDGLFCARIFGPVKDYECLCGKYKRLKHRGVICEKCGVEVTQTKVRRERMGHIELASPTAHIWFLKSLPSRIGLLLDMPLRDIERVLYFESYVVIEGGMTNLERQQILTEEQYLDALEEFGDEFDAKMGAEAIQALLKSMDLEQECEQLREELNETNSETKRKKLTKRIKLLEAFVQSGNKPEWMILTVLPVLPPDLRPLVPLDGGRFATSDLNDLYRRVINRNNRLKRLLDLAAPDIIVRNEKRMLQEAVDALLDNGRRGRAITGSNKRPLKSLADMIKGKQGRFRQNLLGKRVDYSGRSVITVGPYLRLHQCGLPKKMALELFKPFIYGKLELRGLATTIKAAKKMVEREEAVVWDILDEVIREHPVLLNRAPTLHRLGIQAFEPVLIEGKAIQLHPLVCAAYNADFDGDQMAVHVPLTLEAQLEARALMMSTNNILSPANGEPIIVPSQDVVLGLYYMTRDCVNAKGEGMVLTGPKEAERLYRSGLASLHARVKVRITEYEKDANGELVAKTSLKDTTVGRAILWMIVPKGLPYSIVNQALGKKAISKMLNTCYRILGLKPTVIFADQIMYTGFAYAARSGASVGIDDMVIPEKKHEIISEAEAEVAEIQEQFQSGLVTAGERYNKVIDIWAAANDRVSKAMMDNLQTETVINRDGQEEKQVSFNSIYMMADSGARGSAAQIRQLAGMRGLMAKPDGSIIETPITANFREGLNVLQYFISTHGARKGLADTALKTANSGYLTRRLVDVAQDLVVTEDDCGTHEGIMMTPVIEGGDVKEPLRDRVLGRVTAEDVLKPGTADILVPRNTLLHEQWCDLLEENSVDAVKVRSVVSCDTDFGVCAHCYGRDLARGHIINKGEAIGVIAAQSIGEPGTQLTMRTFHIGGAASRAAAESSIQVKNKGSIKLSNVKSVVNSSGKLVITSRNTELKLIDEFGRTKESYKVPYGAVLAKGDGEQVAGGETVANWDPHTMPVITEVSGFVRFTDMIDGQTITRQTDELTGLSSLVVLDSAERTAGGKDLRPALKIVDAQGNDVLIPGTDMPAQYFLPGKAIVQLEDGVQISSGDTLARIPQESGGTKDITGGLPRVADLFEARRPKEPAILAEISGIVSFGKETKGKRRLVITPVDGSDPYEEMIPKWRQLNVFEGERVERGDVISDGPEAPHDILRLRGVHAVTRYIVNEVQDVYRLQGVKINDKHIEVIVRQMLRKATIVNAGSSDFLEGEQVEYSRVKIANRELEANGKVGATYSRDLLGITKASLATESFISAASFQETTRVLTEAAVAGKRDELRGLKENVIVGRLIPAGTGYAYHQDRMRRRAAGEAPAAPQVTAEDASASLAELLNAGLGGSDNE
Sequence of E. coli RNAP core enzyme (P0A800 whole entry, chain 4 of 4): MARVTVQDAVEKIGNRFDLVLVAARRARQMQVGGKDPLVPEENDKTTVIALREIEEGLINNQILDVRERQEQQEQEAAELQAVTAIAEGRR

B1: fluorescein-labeled E. coli σ^E (natural protein)
chain: MSEQLTDQVLVERVQKGDQKAFNLLVVRYQHKVASLVSRYVPSGDVPDVVQEAFIKAYRALDSFRGDSAFYTWLYRIAVNTAKNYLVAQGRRPPSSDVDAIEAENFESGGALKEISNPENLMLSEELRQIVFRTIESLPEDLRMAITLRELDGLSYEEIAAIMDCPVGTVRSRIFRAREAIDNKVQPLIRR
modifications: fluorescein at residue C165
As usually defined, the Kd is the free concentration of one partner at which half of the binding sites on the other are occupied at equilibrium, for simple one-to-one binding. Higher therefore signals a looser complex. In the case of B1, the Kd was ~53 nM.
